Measurements from publication PMC6239174.

How the values were obtained:
[1] = target: T1, Slbp2-MBP (Danio rerio (zebrafish), UniProt A1L2F4 1-326); assay: EMSA
[2] = target: T1, Slbp2-MBP; assay: competition EMSA

Binder	binding result [1]	binding result [2]
AAAAAGGUUCUUUUAAGAACCACCCAUUUUU (structured_RNA) [h2a mRNA stem-loop (H2a SL) probe]	binds	–
AAAAAGGUUCUUUUAAGAACCACCCAUUUUU (structured_RNA) [unlabeled H2a SL competitor]	–	binds
